# Measurements published in patent US10106577B2, “Agonists of neurotrophin receptors and their use as medicaments” (BIONURE FARMA, S.L., priority 2010, dated 2018).
# Legend:
# SH-SY5Y cells = assay: Parkinson's disease in vitro model (MPTP stress, MTT); type: cell-based, human; conditions: MPTP 100 μM, 24 hrs; pre-treated 3 hours; BDNF 20 ng/ml
# Protocol: The human neuroblastoma cell line SH-SY5Y was maintained in culture with 50% Ham's F12 medium and 50% EMEM medium, supplemented with 10% FBS, […] L-glutamine and 1% penicillin/streptomycin. The cell culture was maintained in a humidified atmosphere of 95% air and CO2 at 37° C.
# The SH-SY5Y cells after differentiation to neuronal phenotype with retinoic acid, were pre-treated for 3 hours with the test compounds at different concentrations (20 ng/ml, 100 ng/ml, 2 μg/ml, 20 μg/ml and 50 μg/ml) or BDNF (20 ng/ml) as a positive control. Then 1-methyl-4-phenyl-1,2,3,6-tetrahydropyridine (MPTP) (100 μM) was added and incubated for 24 hrs. The number of surviving cells was determined the day after by 3-(4,5-dimethylthiazol-2-yl)-2,5-diphenyltetrazolium bromide (MTT) assay.
# NSC-34 cells = assay: In vitro model of ALS, serum deprivation of motoneuron-like cells (MTT); type: cell-based, mouse; conditions: BDNF 20 ng/ml; serum deprivation 48 h
# Protocol: Mouse motoneuron-like cells NCS-34 were cultured in DMEM (Gibco) supplemented with 10% heat inactivated FBS and 1% penicillin/streptomycin. The cell culture was maintained in a humidified atmosphere of 95% air and CO2 at 37° C.
# The nutritional deprivation stress in motorneurons was conducted as described previously in Masahito T. et al., J. Neuropathol. Exp. Neurol. 65(8):816-825 (2006). To assess the effect of trophic stress condition on ALS, the presence of apoptosis was investigated using serum deprivation. NSC-34 cells were seeded in 24-well poly-lysinated plates at 30,000 cells/well and preincubated for 24 h in DMEM plus 10% FBS with various doses of G79, G80, and G81 (20 ng/ml, 100 ng/ml, 2 μg/ml, 20 μg/ml, 50 μg/ml), and G-CSF (2 μg/ml) or BDNF (20 ng/ml) which both were used as positive controls (Masahito T. et al., ibid; Elliot J. L., Neurobiology of Disease 6:310-320 (1999)). Then, the medium was removed and replaced with fresh DMEM without FBS. After 48 h, cell viability was assayed by MTT assay, as described previously.
# JNK = assay: Luminex signalling assay in SH-SY5Y; type: cell-based, human; conditions: G79 100 ng/ml and 20 μg/ml, BDNF 20 ng/ml; 30 min, 1 h, 2 h, 6 h
# From the text: (§1) The human neuroblastoma cell line SH-SY5Y was used to perform Luminex signalling assays using the 10-Plex MAPK/SAPK Signaling Kit-Phosphoprotein (Millipore). This cell line expresses the TrkB receptor and the MAPK/SAPK signalling pathway is typically activated by the tyrosinkinase receptors. The phosphoprotein antibodies included into the kit are the following: ERK/MAP kinase (Thr185/Tyr187); STAT-1 (Tyr701); JNK (Thr183/Tyr185); MEK-1 (Ser212); ATF-2 (Thr69/71); p53 (Ser15); HSP27 (Ser78); c-Jun (Ser73); p38 (Thr180/Tyr182), p70 S6 kinase (Thr412); IkBα (Ser32) (purchased from Millipore).
# (§2) The cells were propagated and then seeded into 24-well plates (30.000 cell/well). After 24 hours, the cells were treated with two different concentrations of NGF-receptor agonist G79: 100 ng/ml and 20 μg/ml. After adding G79 into the medium, the cells were collected in the lysis buffer of the kit at the following time points: 30 min, 1 h, 2 h, and 6 h. The assay was performed in this way to assess both time and dose effects comparing the treated samples with the untreated cells used as negative controls (unstimulated SH-SY5Y cells). BDNF was used as positive control at the concentration 20 ng/ml, which is the best working concentration known in literature. In the Luminex plate, each sample was added into a well in duplicate. After adding all the samples, the specific positive and negative controls of phosphorilation, included in the Luminex kit, were added. The assay buffer was also added in duplicate, as a background controls.
# (§3) In the circles are the activated factors, while in the grey circles are the tested factors. Its effects of the SY-SY5Y cell line in the phosphorilation of several pathways were assessed using xMAP assay from Luminex. […] The levels of activation are expressed as Median Fluorescence Intensity (MFI).
# HSP-27 = assay: Luminex signalling assay in SH-SY5Y; type: cell-based, human; conditions: G79 100 ng/ml and 20 μg/ml, BDNF 20 ng/ml; 30 min, 1 h, 2 h, 6 h
# From the text: as §1, §2, §3
# ATF-2 = assay: Luminex signalling assay in SH-SY5Y; type: cell-based, human; conditions: G79 100 ng/ml and 20 μg/ml, BDNF 20 ng/ml; 30 min, 1 h, 2 h, 6 h
# From the text: as §1, §2, §3
# STAT-1 = assay: Luminex signalling assay in SH-SY5Y; type: cell-based, human; conditions: G79 100 ng/ml and 20 μg/ml, BDNF 20 ng/ml; 30 min, 1 h, 2 h, 6 h
# From the text: as §1, §2, §3
molecule,measurement,setting,value
"BDNF: brain-derived neurotrophic factor, neurotrophin used as positive control (protein, UniProt P23560 19-247, looked up) Neurotrophic factor BDNF …: APMKEANIRGQGGLAYPGVRTHGTLESVNGPKAGSRGLTSLADTFEHVIEELLDEDQKVRPNEENNKDADLYTSRVMLSSQVPLEPPLLFLLEEYKNYLDAANMSMRVRRHSDPARRGELSVCDSISEWVTAADKKTAVDMSGGTVTVLEKVPVSKGQLKQYFYETKCNPMGYTKEGCRGIDKRHWNSQCRTTQSYVRALTMDSKKRIGWRFIRIDTSCVCTLTIKRGR","protection of neuronal cells against MPTP (surviving cells, MTT)",SH-SY5Y cells,significant protection of neuronal cells
same,"cell viability, percentage relative to the control without stress",NSC-34 cells,80.62±5.2%
same,JNK phospho-activation (MFI) compared to unstimulated control,JNK,significant JNK activation at 2 h after treatment
same,HSP-27 phospho-activation (MFI) compared to unstimulated control,HSP-27,does not activate HSP-27
same,ATF-2 phospho-activation (MFI) compared to unstimulated control,ATF-2,significant ATF-2 activation at 2 h after treatment
same,STAT-1 phospho-activation (MFI) compared to unstimulated control,STAT-1,did not activate STAT-1
